Experimental data reported in patent US20030108548A1 (TOLERANCE THERAPEUTICS, published 2003).

Columns and labels:
[1] = molecular target: human FcR I and FcR II on cells; experiment: 125I-human IgG on U937 cells in the absence of inhibitor
[2] = molecular target: human FcR I and FcR II on cells; experiment: competitive inhibition of PE-murine IgG2a or 125I-human IgG binding to U937 cells
human CD3 complex [3] = molecular target: T1, human CD3 complex (human, UniProt P07766 23-207); experiment: competition against FITC-mOKT3 tracer on human PBMC, flow cytometry; affinity calculated from the competitor concentration at half-maximal tracer binding (FIG. 3A)
T1 construct: whole, on cells; In all assays the target stood on cells as the whole TCR/CD3 complex; also called CD3 antigen; TCR complex

human CD3 complex [4] = molecular target: T1, human CD3 complex; experiment: competition against FITC-mOKT3 tracer on human PBMC, flow cytometry; affinity calculated from the competitor concentration at half-maximal tracer binding (FIG. 3B)

## 125I-labelled human IgG (antibody)
[1]
  maximum binding: 2750 cpm
  maximum binding as percent of the total radioactivity added: 15%

B1: gOKT3-5 (antibody, human IgG4, V domains shown)
VH: QVQLVQSGGGVVQPGRSLRLSCKASGYTFTRYTMHWVRQAPGKGLEWIGYINPSRGYTNYNQKVKDRFTISTDKSKSTAFLQMDSLRPEDTAVYYCARYYDDHYCLDYWGQGTPVTVSS
VL: DIQMTQSPSSLSASVGDRVTITCSASSSVSYMNWYQQTPGKAPKRWIYDTSKLASGVPSRFSGSGSGTDYTFTISSLQPEDIATYYCQQWSSNPFTFGQGTKLQITR
notes: Humanized OKT3, human IgG4/kappa; also called gLC/gHA; gOKT3-5(γ4); not shown: human IgG4 heavy chain constant region; human kappa light chain constant region
[2]
  fold higher concentration for the same inhibition, against murine OKT3: 10 fold
Human CD3 complex [3]
  Ka: 1.1e+09 M⁻¹

B2: gOKT3-7(γ4) (antibody, V domains shown)
VH: QVQLVQSGGGVVQPGRSLRLSCKASGYTFTRYTMHWVRQAPGKGLEWIGYINPSRGYTNYNQKVKDRFTISRDNSKNTAFLQMDSLRPEDTGVYFCARYYDDHYCLDYWGQGTPVTVSS
VL: DIQMTQSPSSLSASVGDRVTITCSASSSVSYMNWYQQTPGKAPKRWIYDTSKLASGVPSRFSGSGSGTDYTFTISSLQPEDIATYYCQQWSSNPFTFGQGTKLQITR
Human CD3 complex [4]
  Ka: 1.4e+09 M⁻¹
